Data published in US20070253950A1 (Pfizer, published 2007).

Key:
[1] = target: T1, human RAGE-strep tag fusion protein (human, UniProt Q15109 23-344); test: BIACORE capture assay: hRAGE-SA over antibody captured on anti-human Fc; steady state affinity; average of FC2-FC4
T1 construct: monomeric soluble human RAGE; also called hRAGE-SA; soluble human streptavidin-tagged RAGE
Experimental: (§1) The assays were performed by coating anti-human Fc antibodies onto a CM5 BIA chip with 5000 RU (pH 5.0, 7 min.) in flow cells 1-4. Each antibody was captured by flowing at 2.0 μg/ml over the anti-Fc antibodies in flow cells 2-4 (flow cell 1 was used as a reference).

[2] = target: T2, murine RAGE-strep tag fusion protein (murine, UniProt Q62151 23-343); test: BIACORE capture assay: mRAGE-SA (SA-Mu RAGE) over antibody captured on anti-human Fc; 1:1 Langmuir global fit; average of FC2-FC4
T2 construct: also called mRAGE-strep; mRAGE-SA
T2 chain: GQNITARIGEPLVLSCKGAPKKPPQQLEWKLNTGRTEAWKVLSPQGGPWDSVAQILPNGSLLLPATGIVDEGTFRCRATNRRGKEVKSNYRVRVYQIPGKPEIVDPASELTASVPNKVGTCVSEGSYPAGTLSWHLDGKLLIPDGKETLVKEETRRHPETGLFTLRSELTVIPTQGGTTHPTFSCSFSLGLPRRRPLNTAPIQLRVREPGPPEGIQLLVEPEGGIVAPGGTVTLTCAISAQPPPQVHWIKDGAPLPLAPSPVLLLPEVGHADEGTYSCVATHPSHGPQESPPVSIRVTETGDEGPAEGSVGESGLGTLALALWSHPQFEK
Experimental: as §1

[3] = target: T3, human RAGE-Fc fusion protein (human, UniProt Q15109 23-344); test: ligand competition ELISA, panel 'Blocks hRAGE-Fc interaction with A-beta'; blocked ligand amyloid beta 1-42 peptide
T3 construct: amino acids 1-344 of human RAGE appended to the Fc domain of human IgG; also called hRAGE-Fc; huRAGE-Fc

[4] = target: T2, murine RAGE-strep tag fusion protein; test: BIACORE capture assay: mRAGE-SA (SA-Mu RAGE) over antibody captured on anti-human Fc; 1:1 Langmuir global fit; FC3
Experimental: as §1

[5] = target: T4, murine RAGE, full length, on cells (murine, UniProt Q62151 23-402); test: cell-based ELISA, transfected 293 cells
T4 construct: on transfected or infected 293 cells; also called 293-murine RAGE; cell-surface mRAGE
T4 chain: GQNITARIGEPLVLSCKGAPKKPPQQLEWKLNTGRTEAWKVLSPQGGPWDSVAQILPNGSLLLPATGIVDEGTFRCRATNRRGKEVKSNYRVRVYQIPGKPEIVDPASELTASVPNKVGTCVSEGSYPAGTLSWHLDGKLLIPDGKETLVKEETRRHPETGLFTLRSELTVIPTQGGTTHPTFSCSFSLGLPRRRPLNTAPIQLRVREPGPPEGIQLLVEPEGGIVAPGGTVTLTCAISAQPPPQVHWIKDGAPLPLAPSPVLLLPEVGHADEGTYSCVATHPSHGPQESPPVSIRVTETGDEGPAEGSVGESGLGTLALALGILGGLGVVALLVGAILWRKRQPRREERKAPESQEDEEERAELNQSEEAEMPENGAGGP
Experimental: (§2) Human embryonic kidney 293 cells (American Tissue Type Culture, Manassas, Va.) cells were plated at 5×10⁶ cells per 10 cm² tissue culture plate and cultured overnight at 37° C. The next day cells were transfected with RAGE expression plasmids (pAdori1-3 vector encoding mouse, human, baboon, cynomologus monkey or rabbit RAGE) using LF2000 reagent (Invitrogen, Carlsbad Calif.) at a 4:1 ratio of reagent to plasmid DNA using the manufacturers protocol. Cells were harvested 48 hrs post-transfection using trypsin, washed once with phosphate buffered saline (PBS), then suspended in growth media without serum at a concentration of 2×10⁶ cells/ml.
(§3) Primary antibodies at 1 μg/ml were serially diluted at 1:2 or 1:3 in PBS containing 1% bovine serum albumin (BSA) in a 96-well plate. RAGE-transfected 293 cells or control parental 293 cells (50 μl) at 2×10⁶ cells/ml in serum-free growth medium were added to U-bottom 96 well plate for a final concentration of 1×10⁵ cells/well. The cells were centrifuged at 1600 rpm for 2 minutes. The supernatants were gently discarded by hand with a one-time swing and the plate was patted gently to loose the cell pellet. The diluted primary anti-RAGE antibodies or isotype-matching control antibodies (100 μl) in cold PBS containing 10% fetal calf serum (FCS) were added to the cells and incubated on ice for 1 hour. The cells were stained with 100 μl of diluted secondary anti-IgG antibody HRP conjugates (Pierce Biotechnology, Rockford, Ill.) on ice for 1 hour. Following each step of primary antibody and secondary antibody incubations, the cells were washed 3 times with ice-cold PBS. 100 μl of substrate TMB1 component (BIO FX, TMBW-0100-01) was added to the plate and incubated for 5-30 minutes at room temperature. The color development was stopped by adding 100 μl of 0.18M H₂SO₄. The cells were centrifuged and the supernatants are transferred to a fresh plate and read at 450 nm (Soft MAX pro 4.0, Molecular Devices Corporation, Sunnyvale, Calif.).

baboon RAGE, on cells = target: T5, baboon RAGE, on cells (baboon, UniProt Q15109 23-404 (human entry)); test: cell-based ELISA, transfected 293 cells
T5 construct: on transfected 293 cells or endogenous in lung sections; also called 293-baboon RAGE; RAGE in baboon lung
T5 chain: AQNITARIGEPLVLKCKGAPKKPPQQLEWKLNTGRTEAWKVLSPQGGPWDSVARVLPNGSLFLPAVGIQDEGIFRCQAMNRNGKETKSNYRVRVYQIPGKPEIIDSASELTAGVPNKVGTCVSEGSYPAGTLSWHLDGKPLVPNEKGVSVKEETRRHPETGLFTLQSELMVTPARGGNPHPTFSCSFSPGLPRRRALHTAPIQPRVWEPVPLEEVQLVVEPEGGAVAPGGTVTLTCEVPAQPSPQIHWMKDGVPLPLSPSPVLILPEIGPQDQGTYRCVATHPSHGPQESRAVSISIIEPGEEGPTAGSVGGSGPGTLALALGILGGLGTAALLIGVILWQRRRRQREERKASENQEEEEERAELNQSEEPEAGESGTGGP
Experimental: as §2, §3

[6] = target: T6, human RAGE, full length, on cells (human, UniProt Q15109 23-404); test: cell-based ELISA, transfected 293 cells
T6 construct: on transfected or infected 293 cells, stably transfected CHO cells, or endogenous in human lung sections; also called cell-surface hRAGE; 293-human RAGE
Experimental: as §2, §3

T1 sequence (Q15109 other isoform, or with tags, fused parts or gaps): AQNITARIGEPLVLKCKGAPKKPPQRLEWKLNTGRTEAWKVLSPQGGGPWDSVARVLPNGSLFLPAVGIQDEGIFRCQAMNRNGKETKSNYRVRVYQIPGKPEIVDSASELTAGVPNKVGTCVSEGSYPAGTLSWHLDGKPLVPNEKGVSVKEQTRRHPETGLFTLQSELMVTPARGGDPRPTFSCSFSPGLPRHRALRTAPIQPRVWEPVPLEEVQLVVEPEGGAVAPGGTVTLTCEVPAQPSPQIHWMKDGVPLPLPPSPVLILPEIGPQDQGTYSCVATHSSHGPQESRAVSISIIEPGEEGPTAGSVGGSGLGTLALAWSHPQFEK

B1: chimeric XT-M4 (antibody, V domains shown)
VH: EVQLVESGGGLVQPGRSLKLSCVVSGFTFNNYWMTWIRQTPGKGLEWVASINNSGDNTYYPDSVKDRFTISRDNAKSTLYLQMNSLRSEDTATYYCTRGGDITTGFDYWGQGVMVTVSS
VL: DIQMTQSPSSMSVSLGDTITITCRASQDVGIYVNWFQQKPGKSPRRMIYRATNLADGVPSRFSGSRSGSIYSLTISSLESEDVADYHCLEFDEHPLTFGSGTKVEIK
modifications: N-linked oligosaccharide at Asn52 (CDR2) on part of the heavy chains
notes: rat XT-M4 variable regions fused to human kappa light chain and human IgG1 heavy chain constant regions; L234A and G237A in the human IgG1 Fc region; also called chimeric antibody XT-M4; XT-M4-A-1
Binder B1 has a Kd [1] of 11 nM, a Kd [2] of 1.9 nM and a koff [2] of 0.0041 s⁻¹. For the same binder, the kon [2] was 2.1e+06 M⁻¹ s⁻¹, the “IC50 (read off the curve)” value [3] was roughly 0.1 µg/mL and the Kd [4] was 1.9 nM. The koff [4] was 0.0041 s⁻¹, the kon [4] was 2.1e+06 M⁻¹ s⁻¹ and the EC50 [5] was roughly 1.5 nM. It also gave an EC50 (baboon RAGE, on cells) of roughly 1.25 nM and an EC50 [6] of roughly 0.8 nM.
